# Assay results as given in publication PMC4029521.
# Tested on: T1, AirR (Staphylococcus aureus NCTC8325), ORF:f68b8ed8
# T1 sequence: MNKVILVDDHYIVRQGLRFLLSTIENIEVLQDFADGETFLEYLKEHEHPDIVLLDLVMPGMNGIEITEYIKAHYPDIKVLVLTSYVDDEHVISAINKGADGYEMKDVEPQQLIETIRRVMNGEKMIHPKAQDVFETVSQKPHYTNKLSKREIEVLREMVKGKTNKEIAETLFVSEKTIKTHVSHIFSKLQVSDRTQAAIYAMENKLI
# Test: EMSA
sequence,measurement,value
AGCTACACGTAATTTCGCGCTTCGTGCTCTGTTATTGTCATCTAAATCTTCTTCTGTAGCGGTAATCGGTTTACGATTAACACGCTTTAACTTAGGTGTATATGCTTCTGGTATAACTGGTAATCCTCTTGGTACCTCTGGACCTTTTTCATATTCTTGGAACACCTGTTTACATAAACGATCTTCTAAAGAATGGAAAGTGATTACCGAAATCCTGCCATCTACTTTCACTAATTCAATCGCTTGTTCTATTGAATC (double strand) [pbp1 promoter (p-pbp1)],binding,binds
GAATCGCGAACATGGACGAACGATTAGTTGTTAATTTTGAAAATTTATAAAAGGTTAAACGAATGCAGTGAGAGATGTCATTTTAATATCAATGTATGGCTATTTTGTAATGACAATGTAATGAGTTTAGTAAAACATTTCGGGAATATTAAATAGTTGGAAAATGAGAATTAAATCCTTTACTCAGTTGTCTAATTCTTTTAGTATGTGCAGTACAGTTTAATTGAAAACTAACTTTAACTTTAATGGAGGATGTTTTATACATGAAAAAATTAACAGCAGCAGCGATTGC (double strand) [lytM promoter (p-lytM)],binding,binds
